Measurements reported in patent US8703459B2, “Catalytic domains of beta(1,4)-galactosyltransferase I having altered metal ion specificity” (The United States of America, as represented by the …, priority 2003, dated 2014).
Where a chain is given by its changes, count along the chain named. Numbers in names are those of the source. Marks after values point to notes of the source that are not given here.

B1: M344A: Met344 mutant of β4Gal-T1, Met344 to Ala (protein, listed as Bos taurus)
chain: MKFREPLLGGSAAMPGASLQRACRLLVAVCALHLGVTLVYYLAGRDLRRLPQLVGVHPPLQGSSHGAAAIGQPSGELRLRGVAPPPPLQNSSKPRSRAPSNLDAYSHPGPGPGPGSNLTSAPVPSTTTRSLTACPEESPLLVGPMLIEFNIPVDLKLIEQQNPKVKLGGRYTPMDCISPHKVAIIILFRNRQEHLKYWLYYLHPMVQRQQLDYGIYVINQAGESMFNRAKLLNVGFKEALKDYDYNCFVFSDVDLIPMNDHNTYRCFSQPRHISVAMDKFGFSLPYVQYFGGVSALSKQQFLSINGFPNNYWGWGGEDDDIYNRLAFRGMSVSRPNAVIGKCRAIRHSRDKKNEPNPQRFDRIAHTKETMLSDGLNSLTYMVLEVQRYPLYTKITVDIGTPS
B2: M344Q: Met344 mutant of β4Gal-T1, Met344 to Gln (protein, listed as Bos taurus)
chain: B1 chain with A344Q
B3: M344S: Met344 mutant of β4Gal-T1 (protein, listed as Bos taurus)
chain: B1 chain with A344S

Assay: β4Gal-T enzyme assay, specific activity in the presence of various metal ions
Assay type: biochemical, bovine
Details: 0.1 mM Co^2+, 500 μM UDP-Gal, 25 mM GlcNAc
Description: Protein concentrations were measured using the Bio-Rad Protein Assay kit, based on the method of Bradford and further verified on SDS-PAGE gels using standard protein concentration markers. An in vitro assay procedure for Gal-T1 has been reported previously (Ramakrishnan et al., J. Mol. Biol., 310:205 (2001)). The activities were measured using UDP-Gal as sugar nucleotide donor, and GlcNAc as the acceptor sugar. For the specific activity measurements, a 100 μL incubation mixture containing 25 mM GlcNAc, 5 mM MnCl2 or MgCl2, 20 mM Tris-HCl pH 8.0, 500 μM UDP-Gal, 500 ng M344H-Gal-T1 or 30 ng of C342T-Gal-T1 and 0.5 μCi ^3H-UDP-Gal was used for each Gal-T reaction. The incubation was carried out at 30° C. for 15 minutes. The reaction was terminated by adding of 200 μl cold water, and the mixture was passed through a 0.5 mL bed volume column of AG 1-X8 […] resin (Bio-Rad) to remove any unreacted ^3H-UDP-Gal. The column was washed successively with 300, 400 and 500 μl of cold water, and the column flow-through was diluted with Biosafe scintillation fluid; radioactivity was measured with a Beckman counter. A reaction without the acceptor sugar was used as a control. Only 0.1 mM concentration of ZnCl2 or CoCl2 was used whenever Zn^2+ or Co^2+ was used during the enzyme assay.

| Molecule | Catalytic Activity in the Presence of Various Metal Ions: Co |
| --- | --- |
| B1 | 0.61^b picomoles per minute per nanogram |
| B2 | 0.80^b picomoles per minute per nanogram |
| B3 | 0.41 picomoles per minute per nanogram |

Same assay, conditions: 0.1 mM Zn^2+, 500 μM UDP-Gal, 25 mM GlcNAc

| Molecule | Catalytic Activity in the Presence of Various Metal Ions: Zn |
| --- | --- |
| B1 | 0.64 picomoles per minute per nanogram |
| B2 | 0.71 picomoles per minute per nanogram |
| B3 | 0.40 picomoles per minute per nanogram |

Same assay, conditions: 5 mM metal ion, 500 μM UDP-Gal, 25 mM GlcNAc

| Molecule | Catalytic Activity in the Presence of Various Metal Ions: Ca | Catalytic Activity in the Presence of Various Metal Ions: Mg | Catalytic Activity in the Presence of Various Metal Ions: Mn | Catalytic Activity in the Presence of Various Metal Ions: Sr |
| --- | --- | --- | --- | --- |
| B1 | 0 picomoles per minute per nanogram | 0 picomoles per minute per nanogram | 4.16 picomoles per minute per nanogram | 0 picomoles per minute per nanogram |
| B2 | 0 picomoles per minute per nanogram | 0 picomoles per minute per nanogram | 1.91 picomoles per minute per nanogram | 0 picomoles per minute per nanogram |
| B3 | 0 picomoles per minute per nanogram | 0 picomoles per minute per nanogram | 1.97 picomoles per minute per nanogram | 0 picomoles per minute per nanogram |
